Results on 6 molecules are retold here after paper doi:10.1101/2024.11.26.625568, “Structural and functional insights into activation and regulation of the dynein-dynactin-NuMA complex” (bioRxiv, 2024).

First the molecules themselves.
B1: NuMA C (domain or fragment, human, UniProt Q14980 1700-2115, looked up)
chain: FQVATDALKSREPQAKPQLDLSIDSLDLSCEEGTPLSITSKLPRTQPDGTSVPGEPASPISQRLPPKVESLESLYFTPIPARSQAPLESSLDSLGDVFLDSGRKTRSARRRTTQIINITMTKKLDVEEPDSANSSFYSTRSAPASQASLRATSSTQSLARLGSPDYGNSALLSLPGYRPTTRSSARRSQAGVSSGAPPGRNSFYMGTCQDEPEQLDDWNRIAELQQRNRVCPPHLKTCYPLESRPSLSLGTITDEEMKTGDPQETLRRASMQPIQIAEGTGITTRQQRKRVSLEPHQGPGTPESKKATSCFPRPMTPRDRHEGRKQSTTEAQKKAAPASTKQADRRQSMAFSILNTPKKLGNSLLRRGASKKALSKASPNTRSGTRRSPRIATTTASAATAAAIGATPRAKGKAKH
notes: NuMA, human, C-terminal region a.a; 1700-2115; also called NuMA C-terminus; NuMA C-mNG; source: SF9 insect cells (baculovirus), purified (IgG Sepharose, TEV elution, Superdex 200 SEC); not shown: His6, N-terminal, cleaved; ZZ, N-terminal, cleaved; MBP, N-terminal, cleaved; mNG, C-terminal, kept
B2: NuMA 1-1699 (domain or fragment, human, UniProt Q14980 1-1699, looked up)
chain: MTLHATRGAALLSWVNSLHVADPVEAVLQLQDCSIFIKIIDRIHGTEEGQQILKQPVSERLDFVCSFLQKNRKHPSSPECLVSAQKVLEGSELELAKMTMLLLYHSTMSSKSPRDWEQFEYKIQAELAVILKFVLDHEDGLNLNEDLENFLQKAPVPSTCSSTFPEELSPPSHQAKREIRFLELQKVASSSSGNNFLSGSPASPMGDILQTPQFQMRRLKKQLADERSNRDELELELAENRKLLTEKDAQIAMMQQRIDRLALLNEKQAASPLEPKELEELRDKNESLTMRLHETLKQCQDLKTEKSQMDRKINQLSEENGDLSFKLREFASHLQQLQDALNELTEEHSKATQEWLEKQAQLEKELSAALQDKKCLEEKNEILQGKLSQLEEHLSQLQDNPPQEKGEVLGDVLQLETLKQEAATLAANNTQLQARVEMLETERGQQEAKLLAERGHFEEEKQQLSSLITDLQSSISNLSQAKEELEQASQAHGARLTAQVASLTSELTTLNATIQQQDQELAGLKQQAKEKQAQLAQTLQQQEQASQGLRHQVEQLSSSLKQKEQQLKEVAEKQEATRQDHAQQLATAAEEREASLRERDAALKQLEALEKEKAAKLEILQQQLQVANEARDSAQTSVTQAQREKAELSRKVEELQACVETARQEQHEAQAQVAELELQLRSEQQKATEKERVAQEKDQLQEQLQALKESLKVTKGSLEEEKRRAADALEEQQRCISELKAETRSLVEQHKRERKELEEERAGRKGLEARLQQLGEAHQAETEVLRRELAEAMAAQHTAESECEQLVKEVAAWRERYEDSQQEEAQYGAMFQEQLMTLKEECEKARQELQEAKEKVAGIESHSELQISRQQNELAELHANLARALQQVQEKEVRAQKLADDLSTLQEKMAATSKEVARLETLVRKAGEQQETASRELVKEPARAGDRQPEWLEEQQGRQFCSTQAALQAMEREAEQMGNELERLRAALMESQGQQQEERGQQEREVARLTQERGRAQADLALEKAARAELEMRLQNALNEQRVEFATLQEALAHALTEKEGKDQELAKLRGLEAAQIKELEELRQTVKQLKEQLAKKEKEHASGSGAQSEAAGRTEPTGPKLEALRAEVSKLEQQCQKQQEQADSLERSLEAERASRAERDSALETLQGQLEEKAQELGHSQSALASAQRELAAFRTKVQDHSKAEDEWKAQVARGRQEAERKNSLISSLEEEVSILNRQVLEKEGESKELKRLVMAESEKSQKLEERLRLLQAETASNSARAAERSSALREEVQSLREEAEKQRVASENLRQELTSQAERAEELGQELKAWQEKFFQKEQALSTLQLEHTSTQALVSELLPAKHLCQQLQAEQAAAEKRHREELEQSKQAAGGLRAELLRAQRELGELIPLRQKVAEQERTAQQLRAEKASYAEQLSMLKKAHGLLAEENRGLGERANLGRQFLEVELDQAREKYVQELAAVRADAETRLAEVQREAQSTARELEVMTAKYEGAKVKVLEERQRFQEERQKLTAQVEQLEVFQREQTKQVEELSKKLADSDQASKVQQQKLKAVQAQGGESQQEAQRLQAQLNELQAQLSQKEQAAEHYKLQMEKAKTHYDAKKQQNQELQEQLRSLEQLQKENKELRAEAERLGHELQQAGLKTKEAEQTCRHLTAQVRSLEAQVAHADQQLRDLGK
modifications: LD555 dye on the SNAP tag
notes: NuMA (nuclear mitotic apparatus protein), human, a.a; 1-1699; also called NuMA N-terminal construct; source: SF9 insect cells (baculovirus), purified (IgG Sepharose, TEV elution, Superose 6 SEC); not shown: His6, N-terminal, cleaved; ZZ, N-terminal, cleaved; SNAP, C-terminal, kept
B3: TPR domain of LGN (a.a. 1-409) (domain or fragment, human, UniProt P81274 1-409, looked up)
chain: MEENLISMREDHSFHVRYRMEASCLELALEGERLCKSGDCRAGVSFFEAAVQVGTEDLKTLSAIYSQLGNAYFYLHDYAKALEYHHHDLTLARTIGDQLGEAKASGNLGNTLKVLGNFDEAIVCCQRHLDISRELNDKVGEARALYNLGNVYHAKGKSFGCPGPQDVGEFPEEVRDALQAAVDFYEENLSLVTALGDRAAQGRAFGNLGNTHYLLGNFRDAVIAHEQRLLIAKEFGDKAAERRAYSNLGNAYIFLGEFETASEYYKKTLLLARQLKDRAVEAQSCYSLGNTYTLLQDYEKAIDYHLKHLAIAQELNDRIGEGRACWSLGNAYTALGNHDQAMHFAEKHLEISREVGDKSGELTARLNLSDLQMVLGLSYSTNNSIMSENTEIDSSLNGVRPKLGRRHSM
modifications: LD655 dye on the SNAP tag (unlabeled LGN in some assays)
notes: LGN, human, N-terminal TPR domain a.a; 1-409; cloned from pTK47_mCherry-LGN-Hardened; The methods say 'C-terminal SNAP or mNG'; the LD655 labelling implies SNAP; also called LGN TPR; source: SF9 insect cells (baculovirus), purified (IgG Sepharose, TEV elution, Resource-Q ion exchange); not shown: His6, N-terminal, cleaved; ZZ, N-terminal, cleaved; SNAP, C-terminal, kept
B4: NuMA 1-705 (domain or fragment, human, UniProt Q14980 1-705, looked up)
chain: MTLHATRGAALLSWVNSLHVADPVEAVLQLQDCSIFIKIIDRIHGTEEGQQILKQPVSERLDFVCSFLQKNRKHPSSPECLVSAQKVLEGSELELAKMTMLLLYHSTMSSKSPRDWEQFEYKIQAELAVILKFVLDHEDGLNLNEDLENFLQKAPVPSTCSSTFPEELSPPSHQAKREIRFLELQKVASSSSGNNFLSGSPASPMGDILQTPQFQMRRLKKQLADERSNRDELELELAENRKLLTEKDAQIAMMQQRIDRLALLNEKQAASPLEPKELEELRDKNESLTMRLHETLKQCQDLKTEKSQMDRKINQLSEENGDLSFKLREFASHLQQLQDALNELTEEHSKATQEWLEKQAQLEKELSAALQDKKCLEEKNEILQGKLSQLEEHLSQLQDNPPQEKGEVLGDVLQLETLKQEAATLAANNTQLQARVEMLETERGQQEAKLLAERGHFEEEKQQLSSLITDLQSSISNLSQAKEELEQASQAHGARLTAQVASLTSELTTLNATIQQQDQELAGLKQQAKEKQAQLAQTLQQQEQASQGLRHQVEQLSSSLKQKEQQLKEVAEKQEATRQDHAQQLATAAEEREASLRERDAALKQLEALEKEKAAKLEILQQQLQVANEARDSAQTSVTQAQREKAELSRKVEELQACVETARQEQHEAQAQVAELELQLRSEQQKATEKERVAQEKDQLQEQLQ
modifications: LD555 dye on the SNAP tag
notes: NuMA (nuclear mitotic apparatus protein), human, a.a; Construct used for the cryo-EM structure of the DDN complex; also called NuMA N-terminal construct; source: SF9 insect cells (baculovirus), purified (IgG Sepharose, TEV elution, Superose 6 SEC); not shown: His6, N-terminal, cleaved; ZZ, N-terminal, cleaved; SNAP, C-terminal, kept
B5: NuMA 1-505 (domain or fragment, human, UniProt Q14980 1-505, looked up)
chain: MTLHATRGAALLSWVNSLHVADPVEAVLQLQDCSIFIKIIDRIHGTEEGQQILKQPVSERLDFVCSFLQKNRKHPSSPECLVSAQKVLEGSELELAKMTMLLLYHSTMSSKSPRDWEQFEYKIQAELAVILKFVLDHEDGLNLNEDLENFLQKAPVPSTCSSTFPEELSPPSHQAKREIRFLELQKVASSSSGNNFLSGSPASPMGDILQTPQFQMRRLKKQLADERSNRDELELELAENRKLLTEKDAQIAMMQQRIDRLALLNEKQAASPLEPKELEELRDKNESLTMRLHETLKQCQDLKTEKSQMDRKINQLSEENGDLSFKLREFASHLQQLQDALNELTEEHSKATQEWLEKQAQLEKELSAALQDKKCLEEKNEILQGKLSQLEEHLSQLQDNPPQEKGEVLGDVLQLETLKQEAATLAANNTQLQARVEMLETERGQQEAKLLAERGHFEEEKQQLSSLITDLQSSISNLSQAKEELEQASQAHGARLTAQVASLTS
modifications: LD555 dye on the SNAP tag
notes: NuMA (nuclear mitotic apparatus protein), human, a.a; The methods say 'C-terminal SNAP or mNG'; also called NuMA N-terminal construct; source: SF9 insect cells (baculovirus), purified (IgG Sepharose, TEV elution, Superose 6 SEC); not shown: His6, N-terminal, cleaved; ZZ, N-terminal, cleaved; SNAP, C-terminal, kept
B6: NuMA MTBD2 (domain or fragment, human, UniProt Q14980 2002-2115, looked up)
chain: ESKKATSCFPRPMTPRDRHEGRKQSTTEAQKKAAPASTKQADRRQSMAFSILNTPKKLGNSLLRRGASKKALSKASPNTRSGTRRSPRIATTTASAATAAAIGATPRAKGKAKH
notes: NuMA, human, a.a; 2002-2115; source: SF9 insect cells (baculovirus), purified (IgG Sepharose, TEV elution, Superdex 200 SEC); not shown: His6, N-terminal, cleaved; ZZ, N-terminal, cleaved; MBP, N-terminal, cleaved; mNG, C-terminal, kept

Data set [1] concerns the target microtubules (pig brain tubulin) (pig, UniProt P02550 1-451; Q767L7 1-444, Cy3 or Cy5 and biotin labels on a fraction of the tubulin | Cy3 or Cy5 and biotin labels on a fraction of the tubulin). The data set can be described thus: TIRF imaging of fluorescent protein on surface-immobilised microtubules; Cy3/biotin taxol-stabilised MTs immobilised by streptavidin; serial dilutions of mNG-fused NuMA constructs in MBC buffer (30 mM HEPES pH 7.4, 5 mM MgSO4, 1 mM EGTA, 100 mM KAc, casein, pluronic, methylcellulose); apparent Kd from a fit to a binding isotherm. The following applies: both partners purified.

Data set [2] concerns the molecule itself. Kind of data set: mass photometry; single protein diluted to 5-20 nM in 50 mM HEPES pH 7.4, 150 mM NaCl, 1 mM EGTA, 10% glycerol; TwoMP mass photometer.
In the data set “NuMA C” the target is B1. Kind of data set: mass photometry; NuMA C and LGN mixed in equimolar (20 nM) concentrations; mass photometry buffer. The settings on record: both partners purified.

B1: the Kd in data set [1] is 390 nM. Regarding B2, in data set [2], the “stoichiometry N” value stood at 2. Consider B3, for which the “stoichiometry N” value in the data set with NuMA C is 3 LGN per 3 NuMA C. B4: the “stoichiometry N” value in data set [2] turned out to be 2.

As to B5, the “stoichiometry N” value in data set [2] worked out at 2. For B6, the Kd in data set [1] is 28 nM.
